We go through 19 molecules from patent US7097988B1 (ADVANCED RESEARCH AND TECHNOLOGY INSTITUTE, dated 2006).

Test [1] concerns the target T1, human μ opioid receptor coupled to G protein-activated K+ channel (Homo sapiens, UniProt P35372).
T1 construct: Messenger RNAs encoding both proteins (Chen and Yu, 1994) were generated by in vitro transcription and injected into Xenopus oocytes; expressed in transfected cells; host or cells: Xenopus laevis oocytes (mRNA injection)
It is filed as cell-based.

Test [2] concerns the target T2, rat μ opioid receptor coupled to G protein-activated K+ channel (Rattus norvegicus, UniProt P33535, V245I).
T2 construct: A cDNA clone, MOR-1, containing the protein coding region of a rat μ opioid receptor has been described; expressed in transfected cells; host or cells: Xenopus oocytes (mRNA injection)
Format: cell-based.

The target in test [3] is T3, rat μ-opioid receptor MOR-1 (Rattus norvegicus, UniProt P33535, V245I).
T3 construct: A 1.4-kilobase HindIII fragment encompassing the open reading frame from the cDNA encoding MOR-1 was cloned; expressed in transfected cells; host or cells: COS-7
Put plainly: biochemical. Format: binding.

Test [4] has as its target T4, novel member of the opioid receptor gene family (SEQ ID NO: 17) (Rattus norvegicus, UniProt P35370).
T4 construct: mRNA of this clone was synthesized by in vitro transcription and coinjected into Xenopus oocytes; expressed in transfected cells; host or cells: Xenopus oocytes (mRNA injection)
It is filed as cell-based.

The target in a further test is T5, rat μ opioid receptor (Rattus norvegicus, UniProt P33535, V245I).
T5 construct: A plasmid containing a 1.4 kb cDNA for the rat μ opioid receptor in a mammalian expression vector pRc/CMV has been described; expressed in transfected cells
Format: binding.

For test [5], the target named is T6, human μ receptor (adenylyl cyclase) (Homo sapiens, UniProt P35372).
T6 construct: the cDNA containing the open reading frame of the receptor was cloned downstream of the human cytomegalovirus promoter in the mammalian expression vector pcDNA3; expressed in transfected cells; host or cells: COS-7 (transient)
It is filed as cell-based.

The target of test [6] is T7, cloned human μ opioid receptor (Homo sapiens, UniProt P35372).
T7 construct: the cDNA containing the open reading frame of the receptor was cloned downstream of the human cytomegalovirus promoter in the mammalian expression vector pcDNA3; expressed in transfected cells; host or cells: COS-7 (transient)
To be noted: read-out: Binding potencies (Ki-nM), human μ receptor, [3H]DAMGO.

The target in test [7] is T8, cloned human mu opioid receptor (human, UniProt P35372 1-400).
T8 construct: Full-length receptor expressed from pcDNA3 in COS-7 cells (membranes) or from mRNA in Xenopus oocytes; also called human µ opioid receptor; human µ receptor
Put plainly: inhibition of 2 nM [3H]DAMGO binding; membranes of COS-7 cells expressing the human µ receptor.

For test [8], the target named is human μ opioid receptor hμOR1 (Homo sapiens, UniProt P35372, D51N).
For another test, the target named is Mu1 site. The following applies: Clark et al., 1988; cited from earlier work.
A further test addresses Mu2 site. The following applies: Clark et al., 1988; cited from earlier work.
The target of test [9] is μ opioid receptor (PL-17 sites), guinea pig brain membranes. To be noted: read-out: affinity (displacement of radiolabeled PL-17); Kawasaki et al., 1990; cited from earlier work.
For test [10], the target named is mu opioid receptor (DAMGO sites). The following applies: read-out: affinity (displacement of radiolabeled DAMGO); Vaughn and Taylor, 1989; cited from earlier work.
Test [11] deals with T8, cloned human mu opioid receptor. Kind of test: saturation binding, Scatchard analysis; membranes of COS-7 cells expressing the human µ receptor.
Test [12] addresses T9, rat mu opioid receptor MOR-1 (rat, UniProt P33535 1-398).
T9 construct: Full-length receptor expressed from the cDNA in COS-7 cells (membranes), stably in CHO cells (membranes, whole cells) or in Xenopus oocytes; also called rat µ-opioid receptor; cloned rat µ receptor
Put plainly: saturation binding of [3H]DAMGO; membranes of stably transfected CHO cells.

In test [13] the target is T9, rat mu opioid receptor MOR-1. Put plainly: cell-based or functional assay.
For test [14] the target is unchanged. Put plainly: [3H]DAMGO binding to membranes of COS-7 cells pretreated with pertussis toxin.
Test [15] has as its target T8, cloned human mu opioid receptor. Described as above.
The target in test [16] is T9, rat mu opioid receptor MOR-1. Put plainly: displacement of 0.25 nM [3H]diprenorphine; membranes of COS-7 cells expressing MOR-1.
For test [17] the target is unchanged. Put plainly: [3H]DAMGO binding to COS-7 membranes with 100 mM GTPgS in the assay.
For test [18], the target named is T8, cloned human mu opioid receptor. The description is as above.
In test [19] the target is T9, rat mu opioid receptor MOR-1. Kind of test: saturation binding; membranes of stably transfected CHO cells.
Test [20] has as its target T8, cloned human mu opioid receptor. Kind of test: saturation binding; membranes of COS-7 cells expressing the human µ receptor.
Test [21] deals with T9, rat mu opioid receptor MOR-1. Put plainly: whole-oocyte binding of 1 nM ^3H-DAMGO; oocytes injected with mRNAs for the µ receptor and the K^+ channel.
The target of test [22] is T8, cloned human mu opioid receptor. Put plainly: displacement of […] [3H]DAMGO; membranes of COS-7 cells expressing the human µ receptor.
Test [23] deals with T9, rat mu opioid receptor MOR-1. Put plainly: inhibition of [3H]DAMGO binding; membranes of COS-7 cells expressing the rat µ receptor.

Where two headings read alike, the source gives them in different places. Ends that are not written are not given here.

For orientation: Kd means a measure of binding affinity in units of concentration. As usually defined, the IC50 is the concentration that inhibits the measured activity by half.

T4 sequence (P35370 whole entry): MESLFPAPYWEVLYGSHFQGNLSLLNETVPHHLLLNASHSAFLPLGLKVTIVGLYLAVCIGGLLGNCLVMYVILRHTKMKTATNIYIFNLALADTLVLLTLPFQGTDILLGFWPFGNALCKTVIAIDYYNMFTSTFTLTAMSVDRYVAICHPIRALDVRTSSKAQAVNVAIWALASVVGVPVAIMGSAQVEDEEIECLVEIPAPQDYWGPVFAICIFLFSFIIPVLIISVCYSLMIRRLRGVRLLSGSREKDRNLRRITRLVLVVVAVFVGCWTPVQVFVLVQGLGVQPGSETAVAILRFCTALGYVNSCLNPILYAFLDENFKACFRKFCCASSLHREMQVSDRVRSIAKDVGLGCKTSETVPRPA

On to `CC1=C[C@H]2[C@@]3(O)[C@H](C)[C@@H](O)[C@]4(O)[C@H]([C@@H]3C=C(CO)C[C@@]2(O)C1=O)C4(C)C` [4α-phorbol], for which, in test [1], the “second DAMGO response relative to the first (peak current)” value was found to be 87%+2%.
On to `Nc1ncnc2c1nc(Sc1ccc(Cl)cc1)n2[C@@H]1O[C@@H]2COP(=O)(O)O[C@H]2[C@H]1O` [8-CPT-cAMP, 8-chlorophenylthio-cAMP], for which the “effect of kinase modulators on desensitization (in words)” value in [2] is “completely abolished the desensitization”.
Take `COc1cccc2c1[C@]13CCN(CC4CC4)[C@H](C2)[C@]1(OC)CCC(=O)C3` [Cyprodime]: in test [3], the Ki was determined as 9.1 ± 2.8 nM and the “Ki values (in words)” value is “nanomolar range”.
As to `CC1(C)SSC(C)(C)[C@@H](NC(=O)[C@@H](N)Cc2ccc(O)cc2)C(=O)NCC(=O)N[C@@H](Cc2ccccc2)C(=O)N[C@H]1C(=O)O` [DPDPE, [D-Pen^2.5]-enkephalin], in test [4], the “induction of potassium conductance (in words)” value is recorded as “no potassium conductance was induced”.
Take `CC(C)C[C@H](NC(=O)[C@H](Cc1ccccc1)NC(=O)CNC(=O)[C@@H](CO)NC(=O)[C@@H](N)Cc1ccc(O)cc1)C(=O)N[C@H](C(=O)O)[C@@H](C)O` [DSLET, [D-Ser, Leu^5, Thr^6]-enkephalin]: the Ki in test [3] worked out at 314 nM.
In the case of `Nc1nc2c(ncn2[C@@H]2O[C@H](COP(=O)(O)OP(=O)(O)OP(=O)(O)O)[C@@H](O)[C@H]2O)c(=O)[nH]1` [GTP], the “effect on specific [3H]DAMGO binding (in words)” value on rat μ opioid receptor is reported as “decrease the specific binding”.
Same read-out and setting: the entry for `Nc1nc2c(ncn2[C@@H]2O[C@H](COP(=O)(O)OP(=O)(O)NP(=O)(O)O)[C@@H](O)[C@H]2O)c(=O)[nH]1` [Gp(NH)pp] is “decrease the specific binding”.
As for `CCCCCCCCCCCCCC(=O)O[C@@H]1[C@@H](C)[C@@]2(O)[C@@H](C=C(CO)C[C@]3(O)C(=O)C(C)=C[C@@H]23)[C@@H]2C(C)(C)[C@]12OC(C)=O` [PMA, phorbol 12-myristate 13-acetate], the “effect of kinase modulators on desensitization (in words)” value in [2] is on record as “further reduced the second response”. Moreover, the “second DAMGO response relative to the first (peak current)” value in test [1] is 29%+7%.
In the case of `CN1CC[C@]23CCCC[C@H]2[C@H]1Cc1ccc(O)cc13` [levorphanol], the “effect on forskolin-stimulated cAMP accumulation (in words)” value in test [5] is “decreased cAMP accumulation”.
On to `COC(=O)/C=C/C(=O)N[C@@H]1CC[C@@]2(O)[C@H]3Cc4ccc(O)c5c4[C@@]2(CCN3CC2CC2)[C@H]1O5` [β-funaltrexamine], for which the results for the Ki in test [6] and in [3] (read-out: Ki values) were 0.29 nM and 1.3 ± 0.1 nM, respectively. Also, the “Ki values (in words)” value in [3] is reported as “nanomolar range”.
In turn, “CTOP, D-Phe-Cys-Tyr-D-Trp-Orn-Thr-Pen-Thr-NH2 (peptide)” returned a Ki in test [7] of 3.9 nM.
As for Dynorphin A, the “difference in Ki between the inventor's clone and the clone of Wang et al.” value in test [8] is “over 100 fold”. Further, the Ki was 0.7 nM at Mu1 site, 2.2 nM on Mu2 site, 5 nM in test [9] and 3 nM in test [10].
“GGFMTSEKSQTPLVTLFKNAIIKNAYKKGE [des-Tyr^1-β-endorphin]”: the Ki in test [6] is more than 1000 nM.
Turning to Leu-enkephalin, in test [5], the “effect on forskolin-stimulated cAMP accumulation (in words)” value is reported as “significantly reduced”.
In test [11], “[D-Ala^2, N-Me-Phe^4, Gly-ol^5]-enkephalin (peptide)” had a Bmax of 232 fmol/mg and a Kd of 1 nM. For the same molecule, in [12], the Bmax (fmol/mg membrane protein) was found to be 630 and the Kd came out at 0.47 nM. In addition, in [13], the DAMGO/control (cAMP with forskolin plus DAMGO over forskolin only), morphine-treated cells is 42.4%; the DAMGO/control (cAMP with forskolin plus DAMGO over forskolin only), naive cells stood at 71.9%; the EC50 of inhibition of forskolin-stimulated intracellular cAMP, naive transfected CHO cells was found to be 30 nM; the GTPase activity of G proteins, stably transfected CHO cells, 10 µM DAMGO is 30%. Moreover, in test [13], the barium current through a voltage-activated calcium channel, Xenopus oocytes with the channel and the mu opioid receptor, 1 µM DAMGO was more than 80 % reduction; the intracellular cAMP level after forskolin, COS-7 cells expressing MOR-1, 100 nM DAGO was found to be 18.1 % reduction; the intracellular cAMP level, Forskolin + DAMGO (1 µM), morphine-treated cells (fmol/1 × 10^3 cells) amounted to 38.9; the intracellular cAMP level, Forskolin + DAMGO (1 µM), naive cells (fmol/1 × 10^3 cells) came out at 25.6. In [13], this molecule gave a low Km GTPase activity, membranes of stably transfected CHO cells, 1 µM DAMGO of 33%; a maximal inhibition of intracellular cAMP, naive transfected CHO cells of 25%; a maximal inhibition of intracellular cAMP, transfected CHO cells treated with morphine for 24 hr of 60%. The decrease of labelling after PTX-pretreatment in test [14] was 42%. Also, the decrease of labelling after PTX-pretreatment in test [15] worked out at 79%. In test [16], this molecule had a Ki of 2.8 nM. In test [17], this molecule registered a decrease of specific labelling by GTPgS of 55%. Also, the decrease of specific labelling by GTPgS in test [18] was determined as 65%. In [19], this molecule showed a Kd of 1 nM. Also, the Bmax (fmol/mg membrane protein) in test [20] stood at 381. In test [21], the specific binding was 1 fmol/oocyte.
For the molecule [D-Pen^2,5]-enkephalin (peptide), the concentration for half-maximal inhibition (IC50) in test [22] was more than 1000 nM.
cyclic somatostatin (peptide) showed an IC50 in test [16] of 11 µM.
Take YGGFMTSEKSQTPLVTLFKNAIIKNAYKKGE (peptide, UniProt P01189 237-267, looked up, mature) [β-endorphin]: in test [23], the Ki turned out to be 1.7 nM.
Turning to AGCKNFFWKTFTSC (peptide, UniProt P61278 103-116, looked up, mature) [Somatostatin-1-14], in [16], the IC50 was 730 µM.
